Target: CD38 protein on the surfaces of Raji cells, Daudi cells, Ramos cells and RPMI8226 cells (human, UniProt P28907 1-300)
Experiment: cell-based or functional assay

B1: antibody SG003 (antibody, human IgG1, kappa, V domains shown)
VH: QVQLLESGGGLVQPGGSLKLSCVASGFDFSLYWMNWVRQAPGKGLEWIGKINPDSSTINYTPSLKDKFFISRDNAKNTLYLQMTKVRSEDTALYYCARLWIATGGFDYWGQGTTLTVSS
VL: EIVMTQSPASLSASLGQRATISCRASSSVSSSAFSYVHWYQQKSGQPPKLLIYLASNLESGVPARFSGSGSGTDFTLTIHPVESEDVATYYCHHSRELPFTFGSGTKLEIKR
ADCC activity, EC50 (Daudi target cells, NK92MI-CD16a effector cells, LDH release): 0.72 ng/mL
ADCC activity, EC50 (RPMI8226 target cells, NK92MI-CD16a effector cells, LDH release): 1.46 ng/mL
ADCC activity, EC50 (Raji target cells, NK92MI-CD16a effector cells, LDH release): 6.97 ng/mL

Source: patent US20210024645A1 (HANGZHOU SUMGEN BIOTECH, published 2021)
